Drawing on a protein production outcome set (Wang et al. 2014), this text covers protein production for 18 sequences.

The nature of the series: label from the status in PepcDB records.

For the sequence “MKHSGFQAKRLIQLALPVLIAQVTQTMMGFIDTVMAGRVSAVDMAAVAVGTSLWLPAILFVQGLLMAFTPLFAHHNGANNQKAIQPLAFQGAYLALIGGLGVMVFLASAPLVLSHMNLEPQLYNLTIGYIDGILWGAPAFVLYQVLRGCSEGISYTLPTMVIGFVGLAVNIPANYIFIYGHFGIPAMGGAGCGIATALVFWAMLIAMAIYMQFHKKFAALAPFSQFHRPDFATMKKMTKLGLPIAMALFFEVSLFAIIALLLAPLGATVVASHQIALNFSAIVFMLPLSIGIAVSIRIGYYLGRDRADISAVVAKVGLLLALSLALSTAILTVLFRFQIAELYNSDPEVVVLAGSLMLMAALYQLSDSVQVVAAGALRGYKDTRSAFYITLFSYWGIGMSLGYTLAYTDFIVPAMGAHGFWTGLIAGLTSAALLFFIRLRYIQKHRVHLSLIEGDSVHH”, the protein production result is reported as “failed”.

In the case of “MKHYSHGIDGLRSGLSPSAKPFAIGSSSSPAFSLKSEHEDSIWGDYTLDLSFLSSDDQRSGLDDDDSLSNLSRDVETNKEGLVLEEKIASSGKVLVNPNPSFSKLPEVLMKSSDVVGDAKLGLSCVSEKSSTESDLDESEEDSPCWKGMLSHKSLASGTKSMTSRRSTDDLSGFRKLNPLAPQFIPSSSKKKLETDGEKCEETSSSSLKKSLSSTFPSSSGEFDLTDPPLEDGRNDAAEKTSILTHNADEILGFVTSDSVSKTVSMLDSRNEFQPSKRLDPLAPVFVPSSAKLGPSVHEKLGDFVVNAYSTSALASSHVKSLDKGKVVTSSGEVGHSFKSQYGGHDFGSTSSYGPWIESEVGITEYAKLGSSNKSQGQRRLNPLARQFSLADAKQKPYGYGKNQAADDLSLVVNTSGLYIPARYREDHNVVDADLAQSSVNVERFLPNMSHGGSSLITPKADSNFGSTKWIAVEPNPTFSVKGNRDFKHHLPFHVVETAASSSTSDMKALPGPSPKMDVKKLLTTMHGLSELLTLAHGSESSDSPNAEELDLINSTVQNLNLYIQNNSQEHAGNQSVAQYNSYDLKLLPNKSKLSIRDHQFPTANNMTVDLDVKRKDKYSVVSRETVPGSRSYQYGATEDNGFGQVVPTNGYQQHQGVEQINQNALFYKSLWLKAEADRCLMVYETSLSNPYP”, the protein production result is “failed”.

Consider “MKIACVVLTYNRLSLLKRCIDSIRNQTYQEFDIYVIDNASTDGTAHWLSLQNDLTVISIHENKGPANGFYTCLQVPYDDGYDWIWMMDDDGVADKGQLEELLNKTVKNNLYFTNALVCNIDNPEKIAFGAKKTIDTQREELIKGNINPFNGTFIHRRVIEKNGNIMREMYMYGCETEYQLRAIKNGFQVATVTSAIHYHPSPKVSICHLIPYIKYCSIIDYPIDTLFYIRNKAYINYTYLGFKRSLFMITSYSLYYLFRLKIRKVLLFWKYYREGCKGVVGNKKQLEHHHHHH”, for which the protein production result is given as “not failed”.

As for “MKIAVDAMGGDNAPQAIVEGVMLAKQDFPDIEFQLYGKEAEIKKYITDEKNITIIHTDEKIASDDEPVKAIRRKKTASMVLAAQAVKNGEADAIFSAGNTGALLAAGLFIVGRIKNVERPGLMSTLPVMGEPDKGFDMLDLGANADNKPEHLVQYAVLGSFYAEKVRNVQNPRVGLLNNGTEETKGSELTKKAFELLAADETINFVGNVEARELLNGVADVVVTDGFTGNAVLKSIEGTAMNMMSLLKTAILSEGVKGKMGALLLKNALHGMKDEMDYSKHGGAVLFGLKAPVIKTHGATGPDAVRYTIRQIHTMLETQVVPQLVEYYEGKAE”, the protein production result is reported as “not failed”.

“MKIAVVDGQGGGIGKAVVEKLRKELPEDTQIIALGTNALATTLMLKAGANEGASGENAIVFNAPKVDIIVGPIGIISANSMMGELTPLMAAAIAESPARKILIPLNRCNIEIAGVKNEPLPYYIEHAVEMVKKYVEGHIALEHHHHHH”: the protein production entry is “not failed”.

As to “MKIFAVVVTYNRLALLKKVIDLLKRQTRQLDSIVIVNNGSTDGTKEWLEQEKNITLINQSNSGGAGGFETGVKYAYENEADWIWMMDDDVFPNIDCLEKLLGWTSISQCIQPRRYYSDDVEVNFEQWLDPITYSKFGYWQEKSFNNGKKFCAINVGCFEGMFVSKSIVNKIGFPDKRFFIAEDDTIYGFAASFYTNVILVSDAIMVRARRSSDRSVSPMYTYYACRNFHLVYESLNLLLDKKNRFLYIKYIYQFVHQIYLSIFLYDNKMKHLISVFRGFYDCFRKKNGATYLEHHHHHH”, the protein production result is listed as “failed”.

Consider “MKIFLDSAITTDIQDRLATEIIDGVTTNPTLIKKSNEDPDVVYKELYDMRVKDISIEVRGDTAQELAANGILYGRKYGEVATIKLPCTVEGIKACKKLSILGHKTNMTLVFSVSQAILCAKAGATYVSPFVGRLDQIGEDGIQLIRDISRVYCVSGVKTQILAASIRSPKQAEDAYLAGADICTLPVKVFDQMFKHTLTDDGLKQFAIDFGINF”, for which the protein production result is given as “failed”.

For the sequence “MKIGDKVRFLSEVGGGIVTGFKGKDFVLVEDADGFDIPMPIRECVVIEADDYNIKRKPAATAPKQEEPAKPAKPEMPVIQRQPEVRGGDTLNVFLAYVPEDAKAMMTTPFEAYLVNDSNYYLYYTYLSAEGKAWNNRSHGLVEPNTKLLLEEFTKDVLNEMERVAVQLIAFKDGKPAAIKPAVSVELRIDTVKFYKLHTFSASDFFEEPALIYDIVKDDVPAKQVYVSAEEIQSALLQKKFVDKPKSQPIMKPNHGQSGKNGIIEVDLHIDSLLDDTHGMSNSEILNYQLDKFREVIEANKEKREQKVVFIHGKGDGVLRKAIIDELKRKHSNYRYQDASFQEYGFGATMVTIK”, the protein production result is listed as “not failed”.

Take “MKIGFLGFGKSNRSLLKYLLNHQEAKFFVSEAKTLDGETKKFLEEHSVEYEEGGHTEKLLDCDVVYVSPGIKPDTSMIELLSSRGVKLSTELQFFLDNVDPKKVVGITGTDGKSTATALMYHVLSGRGFKTFLGGNFGTPAVEALEGEYDYYVLEMSSFQLFWSERPYLSNFLVLNISEDHLDWHSSFKEYVDSKLKPAFLQTEGDLFVYNKHIERLRNLEGVRSRKIPFWTDENFATEKELIVRGKKYTLPGNYPYQMRENILAVSVLYMEMFNELESFLELLRDFKPLPHRMEYLGQIDGRHFYNDSKATSTHAVLGALSNFDKVVLIMCGIGKKENYSLFVEKASPKLKHLIMFGEISKELAPFVGKIPHSIVENMEEAFEKAMEVSEKGDVILLSPGGASFDMYENYAKRGEHFREIFKRHGGDEV”: the protein production entry is given as “failed”.

On to “MKIIAFGASTSSTSINKALATFTANLVDGAQVQVLNINDYSVPMFSEDLEKEIGQAEGAQAFLRDLAQADAFVISFAEHNGHYPAAYKNLFDWATRINRALFGDKPAVYLSTSPGPGGAKSVLAAATASAPFFGGNVKASVSVPSFYDNFDLEQGVVTKPEIVAELKAAVAKLSA”, for which the protein production entry is given as “failed”.

For the sequence “MKIIENYKGLPKSIYFLFLVQVINRLGDFVFPFLSLLLTQKLKFSMATTGTIVMIASVVGVPASFIGGKIADKSSRKLTYILGQSFAAIVILICGFINIPNLTVALLIASSFFNGFVRPTISAMVADLLPASKRQMGSSLLYLGINFGVAVGPIIAGFLFNNYLSLLFIIDALTSFIAVIIVLILIPDTKAVKHVGEDRIEEKEEKGNLLQILLKRPFVICFFGVDMIYSLAYRQCSFSMPIMMNKVFGYSGSSKYGFLMSVNALTVVALTIFVMHVTKRFRTLTNMAFSGLFYAVGFGMISIIGNSYLLFIISTVIWTMGEILGATNFGVYLANNSPRNCRARFGAVGELISSIGGAIGIFGAGKLIESYGINMIWRVIFIIVLLGAGLMLTLQYFQTKRVEQKIAHEI”, the protein production entry is reported as “failed”.

Take “MKIIIIGCGKVGAYVAKQLLDSHHQVTIIERDQKRFEQVLQIFSQAEVLHGDGTSPILLEKCSVETANAVAYLTGKDEINLVGSTVAKFNYAVDRVVARVNNPKNEWLFNADMGVDSRVSQASLLASVIINEVNIESTATLLKLNDDENAIVEFVLSKGASVHGKTVKTINFPSDVVLISVHRQGQNIIPKGETVLLEGDHILAYTNSQNQEKLAQLFR”: the protein production result is “failed”.

Take “MKIKAISIDIDGTITYPNRMIHEKALEAIRRAESLGIPIMLVTGNTVQFAEAASILIGTSGPVVAEDGGAISYKKKRIFLASMDEEWILWNEIRKRFPNARTSYTMPDRRAGLVIMRETINVETVREIINELNLNLVAVDSGFAIHVKKPWINKGSGIEKASEFLGIKPKEVAHVGDGENDLDAFKVVGYKVAVAQAPKILKENADYVTKKEYGEGGAEAIYHILEKFGYL”: the protein production result is “not failed”.

“MKIKANGNEVQIEREMTIFEMLDALNVSMKEYVTVQLNGQIIPRSEYDKVTVKDGDEVEFLYFMGGGLL”: the protein production result is listed as “failed”.

On to “MKIKGTEKVPILIFLGALAIGIAFLPPENSLTYDGALYINIARSLTKSVTSFTYQGIYMMYRPPLYPYTLSIFFRVFSSNHLLIARLVSVFSFALTSVLVYLLTLEMFRDSVKGIIASLFYIFNPLAFTMAGRELVHSEFTFFYTLAIYLLYTGKVRKSNTRIYLSFIAAGLAILTRYTGLSIVLVFLTYLWLTEDWNWVRRREYLIGFALLFLTLLPWLYMGHLYYGGFFRPFKIASKVVTLDRPVSAFDFIKMVIGDMGFLLPALAVLGFFRVKKDENGWLILSWLVMGGGGILTVTHKESRFITFLSPVIAILASEGIYLLSNLTPRIRRNNIVAVILALLLLIPIGMKADNLRDRWSIVGVYDSNVVRYVSEHYDGKKILVSPYLYTIAGYYYPNAEIDMILNRKEIVEKIAKGYYDVIIHKDPNVYLNIEESGNYVLVKEFHGGRFKVYINRRSLAK”, for which the protein production entry was “failed”.

As to “MKILILGGTRFLGRAFVDEALQRGHEVTLFNRGTNKEVFPEVEQLIGDRNNDVSSLKNRKWDVVIDTCGFSPHHIRNVGEVLNDNIEHYVFISSLSVYKDWILHDIKEDYILQPEPTDDQIKAVENGEVSPYEYYGALKVLCEKEAEKYWPGRVLHVRAGLLSGMFDYTDRLPYWIQRVAKGGKVLVPGRKDRPVQIVDIKDVANWGLNMAENKNAGTFNVTGPNYDLTMEELLNTCKKVMNSDAEFVWVEESFMNEHNVQPWTEMPLWLPEIFSLEGETKPWKGGFTISIENAVKEGLTFRRIEETVTDVYEWMKSTDEWELKAGISGEREKELLERWYQ”, the protein production result was “failed”.

Regarding “MKILLFICGEGLGHTGRCLALGKEFLAAGHEVNFGAYGYSKGLVQKTGYSAYEIPSEIKLAGEAGTFDIRKSIKETLNNLSPSGFRKILRLIEKLDPDVVLSDGYYTGILAAQKRKVPVYFIGHQFNMEEFFWKKGLFAGIAGIFVKRFYNYVFSSVDGIIVPDYPLPYSVNRKNFTISRAVNDNIFFSGPLIRCRYQEAGEKAFKRPNVLSTIGAFGYRAAVFRNVLEAAKLDPSIYYTFISGPEIDPEQFSKVPENVEFTGFTENPFPYYKGSDLVITAGGHGTIMESLAFGLPILSFPDEKHAEQENNASVLEEAGYGKRMSYLTPPEVILACIREIFEDENYSKKTRRLMELAEVLDGPAAVRKFLEEKHRGLEHHHHHH”, the protein production entry is listed as “failed”.

“MKILRRTITGAATGLLLALPGVALAGTTLRVASEEAFATPAKVAAQSALEHVEKTLPDATGGEVSVQLYPGGALGSEKELIKALADGTVDAMVLSPGNAAGIVPEVQLFSASYLFESYDHARAVIKDDAFFEALAQIIAEKQAGFQLAGIGLTGTRNYYSRSRAVETIEDLSGVKMRVMSSPTEFKVWSELGTLPTTIPAPEIYTSLQTGVVDAAESSLPAISGSKYYEVAPYISLTQHQFNLHLFLVSDIAMSRLSEGQQAAVLQAFREAGHIEIDEAIRLSDEVLAFLRERPGVTVTEVDTAPFAQKLRAVQDEVATGLGVEPLLEIIRSHGTQG”: the protein production result is “failed”.
